Target: the molecule itself
Assay: crystal structure

Row | Protein | stoichiometry N
1 | phosphoribulokinase from Chlamydomonas reinhardtii (enzyme, UniProt P19824 32-375, looked up) DKDKTVVIGLAADSGCGKSTFMRRMTSIFGGVPKPPAGGNPDSNTLISDMTTVICLDDYHCLDRNGRKVKGVTALAPEAQNFDLMYNQVKALKEGKSVDKPIYNHVSGLIDAPEKIESPPILVIEGLHPFYDKRVAELLDFKIYLDISDDIKFAWKIQRDMAERGHSLESIKSSIAARKPDFDAYIDPQKKDADMIIQVLPTQLVPDDKGQYLRVRLIMKEGSKMFDPVYLFDEGSTISWIPCGRKLTCSFPGIKMFYGPDTWYGQEVSVLEMDGQFDKLEELIYVESHLSNTSAKFYGEITQQMLKNSGFPGSNNGTGLFQTIVGLKVREVYERIVKKDVVPV | 2
2 | phosphoribulokinase from Arabidopsis thaliana (enzyme, UniProt P25697 47-395, looked up) AQETIVIGLAADSGCGKSTFMRRLTSVFGGAAKPPKGGNPDSNTLISDTTTVICLDDYHSLDRYGRKEQKVTALDPRANDFDLMYEQVKALKNGIAVEKPIYNHVTGLLDPPELIQPPKILVIEGLHPMFDERVRDLLDFSIYLDISNEVKFAWKIQRDMAERGHSLESIKASIEARKPDFDAFIDPQKQYADAVIEVLPTTLIPDDNEGKVLRVRLIMKEGVKYFSPVYLFDEGSTISWIPCGRKLTCSYPGIKFNYEPDSYFDHEVSVLEMDGQFDRLDELIYVESHLSNLSTKFYGEVTQQMLKHADFPGSNNGTGLFQTIVGLKIRDLYEQLIANKATARAEAKA | 2

From article doi:10.1101/422709 (bioRxiv, 2019)
